The record followed here is patent US20170260242, “METHOD FOR MODIFYING RNA BINDING PROTIEN USING PPR MOTIF” (Kyushu University, National University Corporation, published 2017).

Where a chain is given by its changes, count along the chain named.

One data set addresses T1, 5&6/5-K12N,6-N12K (Arabidopsis thaliana, UniProt Q9SF38 SEQ:124-197).
T1 chain: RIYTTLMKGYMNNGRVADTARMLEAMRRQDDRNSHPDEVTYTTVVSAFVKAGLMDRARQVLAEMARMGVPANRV
The data set is described as follows: EMSA; affinity improved vs 5-K12N; value in figure. The note with it: tags: N-terminal thioredoxin, C-terminal His; label: 32P-UTP internal. In general terms: A gel shift assay detects complexes by their altered migration in electrophoresis.

For a further data set, the target named is T2, 8&9/9-K8D (Arabidopsis thaliana, UniProt Q9SF38 SEQ:124-194).
T2 chain: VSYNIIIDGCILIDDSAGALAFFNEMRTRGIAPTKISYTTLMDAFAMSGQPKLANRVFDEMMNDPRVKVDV
The data set can be described thus: EMSA; no significant difference vs 8&9. The note with it: tags: N-terminal thioredoxin, C-terminal His; label: 32P-UTP internal.

The target of a further data set is T3, 8&9/8-D8K,9-K8D (Arabidopsis thaliana, UniProt Q9SF38 SEQ:124-194).
T3 chain: T2 chain with D8K
The data set can be described thus: EMSA; no significant difference vs 8&9. The note with it: tags: N-terminal thioredoxin, C-terminal His; label: 32P-UTP internal.

The next data set has as its target T4, 8&9/8-D8K (Arabidopsis thaliana, UniProt Q9SF38 SEQ:124-194).
T4 chain: T2 chain with D8K, D43K
The data set can be described thus: EMSA; no change vs 8&9. The note with it: tags: N-terminal thioredoxin, C-terminal His; label: 32P-UTP internal.

A further data set addresses T5, 5&6/5-K12M,6-N12R (Arabidopsis thaliana, UniProt Q9SF38 SEQ:124-197).
T5 chain: T1 chain with N12M, K50R
The data set is described as follows: EMSA; partly restored vs 6-N12R. To be noted: tags: N-terminal thioredoxin, C-terminal His; label: 32P-UTP internal.

Another data set has as its target T6, 5&6/5-N13L (Arabidopsis thaliana, UniProt Q9SF38 SEQ:123-204).
T6 chain: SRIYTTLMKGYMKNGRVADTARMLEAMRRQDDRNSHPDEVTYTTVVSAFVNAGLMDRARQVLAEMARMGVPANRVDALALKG
The data set is described as follows: EMSA; position 13 not among those with 10-fold or more reduction (position-level). To be noted: tags: N-terminal thioredoxin, C-terminal His; label: 32P-UTP internal.

The next data set has as its target T7, 5&6/5-N13A (Arabidopsis thaliana, UniProt Q9SF38 SEQ:123-204).
T7 chain: T6 chain with N14A
The description is as above. The note with it: tags: N-terminal thioredoxin, C-terminal His; label: 32P-UTP internal.

Another data set has as its target T8, HCF152/8&9 (Arabidopsis thaliana, UniProt Q9SF38 SEQ:124-195).
T8 chain: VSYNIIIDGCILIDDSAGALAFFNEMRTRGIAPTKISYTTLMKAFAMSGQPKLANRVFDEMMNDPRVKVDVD
The data set is described as follows: EMSA; 6 mM MgCl2, 30 mM KCl, pH 7.9, 25 C. To be noted: tags: N-terminal thioredoxin, C-terminal His; label: 32P-UTP internal.

The target of a further data set is T9, HCF152/10&11 (Arabidopsis thaliana, UniProt Q9SF38 SEQ:124-195).
T9 sequence: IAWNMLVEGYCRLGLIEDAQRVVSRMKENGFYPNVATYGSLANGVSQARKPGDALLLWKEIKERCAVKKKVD
The data set can be described thus: EMSA; 6 mM MgCl2, 30 mM KCl, pH 7.9, 25 C. The note with it: tags: N-terminal thioredoxin, C-terminal His; label: 32P-UTP internal.

A further data set addresses T10, 6&7/6-S8K (Arabidopsis thaliana, UniProt Q9SF38 SEQ:124-195).
T10 chain: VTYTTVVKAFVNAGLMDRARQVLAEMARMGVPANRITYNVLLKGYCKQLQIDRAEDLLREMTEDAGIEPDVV
The data set can be described thus: EMSA; affinity improved vs 6&7; value in figure. The note with it: tags: N-terminal thioredoxin, C-terminal His; label: 32P-UTP internal.

Another data set addresses T11, 6&7/6-V1R (Arabidopsis thaliana, UniProt Q9SF38 SEQ:124-195).
T11 chain: T10 chain with V1R, K8S
The data set is described as follows: EMSA; affinity improved vs 6&7; value in figure. The note with it: tags: N-terminal thioredoxin, C-terminal His; label: 32P-UTP internal.

For another data set, the target named is T12, 6&7/7-N4T (Arabidopsis thaliana, UniProt Q9SF38 SEQ:124-195).
T12 chain: T10 chain with K8S, N39T
The data set can be described thus: EMSA; affinity improved vs 6&7; value in figure. The note with it: tags: N-terminal thioredoxin, C-terminal His; label: 32P-UTP internal.

In a further data set the target is T13, 5&6/5-M11I (Arabidopsis thaliana, UniProt Q9SF38 SEQ:123-204).
T13 chain: T6 chain with M12I
The data set can be described thus: EMSA; position 11 not among those with 10-fold or more reduction (position-level). To be noted: tags: N-terminal thioredoxin, C-terminal His; label: 32P-UTP internal.

A further data set addresses T14, 5&6/5-M11A (Arabidopsis thaliana, UniProt Q9SF38 SEQ:123-204).
T14 chain: T6 chain with M12A
The data set is described as above. The note with it: tags: N-terminal thioredoxin, C-terminal His; label: 32P-UTP internal.

The target in another data set is T15, 5&6/5-G14A (Arabidopsis thaliana, UniProt Q9SF38 SEQ:124-197).
T15 chain: T1 chain with N12K, G14A, K50N
The data set can be described thus: EMSA; position 14 not among those with 10-fold or more reduction (position-level). To be noted: tags: N-terminal thioredoxin, C-terminal His; label: 32P-UTP internal.

The next data set addresses T16, 5&6/5-G14D (Arabidopsis thaliana, UniProt Q9SF38 SEQ:124-197).
T16 chain: T1 chain with N12K, G14D, K50N
The description is as above. To be noted: tags: N-terminal thioredoxin, C-terminal His; label: 32P-UTP internal.

For a further data set, the target named is T17, 5&6/5-T5I (Arabidopsis thaliana, UniProt Q9SF38 SEQ:123-204).
T17 chain: T6 chain with T6I
The data set is described as follows: EMSA; position 5 not among those with 10-fold or more reduction (position-level). The note with it: tags: N-terminal thioredoxin, C-terminal His; label: 32P-UTP internal.

The target in the next data set is T18, 5&6/5-K12H (Arabidopsis thaliana, UniProt Q9SF38 SEQ:124-197).
T18 chain: T1 chain with N12H, K50N
The data set can be described thus: EMSA; Kd almost equivalent to wild type 5&6; value in figure. The note with it: tags: N-terminal thioredoxin, C-terminal His; label: 32P-UTP internal.

Data set [1] deals with T19, HCF152/5&6 (Arabidopsis thaliana, UniProt Q9SF38 SEQ:124-197).
T19 chain: T1 chain with N12K, K50N
The data set can be described thus: EMSA; 6 mM MgCl2, 30 mM KCl, pH 7.9, 25 C. To be noted: tags: N-terminal thioredoxin, C-terminal His; label: 32P-UTP internal.
Protocol: (§1) The RNA binding activity of the mini PPR protein was analyzed by gel shift method. […] Then, to the reaction solution was added 4 microliters of 80% glycerol solution, and 10 μL was developed in 10% nondenaturing polyacrylamide gel comprising 1×TBE (89 mM Tris-HCl, 89 mM Boric acid, and 2 mM EDTA) and the gel was dried after electrophoresis. The radioactivity of RNA in the gel was measured with Bioimaging Analyzer BAS2000 (From Fujifilm). […] This is because the molecular weight of the 32P-labeled RNA/protein conjugate is larger than the molecular weight of the 32P-labeled RNA alone and thus mobility in electrophoresis had become slower. The binding between protein and RNA was quantified based on the results in FIGS. 1C-H (FIG. 1B), and evaluated by determining the disassociation constant (Kd) (FIG. 2C).

The target of the next data set is T20, HCF152/9&10 (Arabidopsis thaliana, UniProt Q9SF38 SEQ:124-194).
T20 sequence: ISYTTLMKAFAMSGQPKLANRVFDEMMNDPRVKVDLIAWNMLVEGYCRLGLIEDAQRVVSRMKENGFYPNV
The data set can be described thus: EMSA; A>G>U; 200 nM protein. The note with it: tags: N-terminal thioredoxin, C-terminal His; label: 5'-32P.

Data set [2] deals with T19, HCF152/5&6. The data set can be described thus: EMSA; A>G>U; 200 nM protein. To be noted: tags: N-terminal thioredoxin, C-terminal His; label: 5'-32P.
Protocol: (§2) The binding specificity of the mini PPR proteins were analyzed by gel shift method. […] Then, to the reaction solution was added 4 μl of 80% glycerol solution, and 10 μL was developed in 10% nondenaturing polyacrylamide gel comprising 1×TBE (89 mM Tris-HCl, 89 mM Boric acid, and 2 mM EDTA) and the gel was dried after electrophoresis. The radioactivity of RNA in the gel was measured with Bioimaging Analyzer BAS2000 (From Fujifilm).
In a further data set the target is T21, HCF152/2&3 (Arabidopsis thaliana, UniProt Q9SF38 SEQ:124-194).
T21 sequence: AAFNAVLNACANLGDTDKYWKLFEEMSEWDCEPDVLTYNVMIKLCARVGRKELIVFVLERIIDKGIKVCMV
The data set can be described thus: EMSA; A>G>U; 200 nM protein. The note with it: tags: N-terminal thioredoxin, C-terminal His; label: 5'-32P.

In a further data set the target is T22, CAR4/6 (I1L) (Arabidopsis thaliana, UniProt O22137 SEQ:124-155).
T22 chain: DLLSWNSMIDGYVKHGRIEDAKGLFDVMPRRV
The data set can be described thus: EMSA; did not bind A. To be noted: tags: N-terminal thioredoxin, C-terminal His; label: 5'-32P.

For the next data set, the target named is T23, HCF152/7&8 (Arabidopsis thaliana, UniProt Q9SF38 SEQ:124-196).
T23 chain: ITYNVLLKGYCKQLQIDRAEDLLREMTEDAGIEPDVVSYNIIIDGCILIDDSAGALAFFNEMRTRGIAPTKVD
The data set is described as follows: EMSA; A>U>G; 200 nM protein. To be noted: tags: N-terminal thioredoxin, C-terminal His; label: 5'-32P.

For data set [3], the target named is T24, CAR4/6 (CRR4 PPR motif 6) (Arabidopsis thaliana).
T24 chain: T22 chain with L3I
The data set can be described thus: EMSA; preference for A. To be noted: tags: N-terminal thioredoxin, C-terminal His; label: 5'-32P.

Protocol for 5&6/5-G14A: as §1
(§3) Using HCF152/5&6 as the model, mini PPR proteins having one amino acid substitution introduced centering on the aforementioned positions (1st, 2nd, 4th, 5th, 8th, 9th, 11th, and 12th) were prepared. The amino acid substitutions were based on substitution to alanine. […] Affinity with RNA was analyzed by the same gel shift method as above (FIG. 3), and the affinity with the RNA was evaluated with Kd (FIG. 4B).
Protocol for 5&6/5-G14D: as §1, §3
Protocol for 5&6/5-K12H: as §1
Protocol for 5&6/5-K12M,6-N12R: (§4) The RNA binding activity of the mini PPR protein was analyzed by gel shift method. […] Then, to the reaction solution was added 4 microliters of 80% glycerol solution, and 10 μL was developed in 10% nondenaturing polyacrylamide gel comprising 1×TBE (89 mM Tris-HCl, 89 mM Boric acid, and 2 mM EDTA) and the gel was dried after electrophoresis. The radioactivity of RNA in the gel was measured with Bioimaging Analyzer BAS2000 (From Fujifilm). […] The binding between protein and RNA was quantified based on the results in FIGS. 1C-H (FIG. 1B), and evaluated by determining the disassociation constant (Kd) (FIG. 2C).
Protocol for 5&6/5-K12N,6-N12K: as §4
Protocol for 5&6/5-M11A: as §1, §3
Protocol for 5&6/5-M11I: as §1, §3
Protocol for 5&6/5-N13A: as §1, §3
Protocol for 5&6/5-N13L: as §1, §3
Protocol for 5&6/5-T5I: as §1, §3
Protocol for 6&7/6-S8K: as §4
Protocol for 6&7/6-V1R: as §4
Protocol for 6&7/7-N4T: as §4
Protocol for 8&9/8-D8K,9-K8D: as §4
Protocol for 8&9/9-K8D: as §4
Protocol for HCF152/10&11: as §4
Protocol for HCF152/2&3: as §2
Protocol for HCF152/7&8: as §2
Protocol for HCF152/8&9: as §4
Protocol for HCF152/9&10: as §2

B1: BD120 (petB) (ssRNA)
RNA: CUGGAUGGAAUUUCAGUGAAUUAGACUGAGAAGAAUCUUGAAGUUCUAGCUUUUAGCUCGAUACAAAAAAGUAAAGUAUGCAGGUCUAACAAUUUUAGCCUAUUCUCCUUUGGUAGUUCG
What is called Kd is the free concentration of one partner at which half of the binding sites on the other are occupied at equilibrium, for simple one-to-one binding. Read a high Kd as lower affinity. Regarding B1, the binding result with 5&6/5-K12N,6-N12K, with 8&9/9-K8D, in the data set with 8&9/8-D8K,9-K8D, in the data set with 8&9/8-D8K, with 5&6/5-N13L and in the data set with 5&6/5-N13A was “binds” each time. Moreover, the binding result with 6&7/6-S8K, with 6&7/6-V1R, with 6&7/7-N4T, with 5&6/5-M11I, in the data set with 5&6/5-M11A and in the data set with 5&6/5-G14A was “binds” each time. Further, the binding result with 5&6/5-G14D, in the data set with 5&6/5-T5I and with 5&6/5-K12H was “binds” in each case. Also, the Kd with 5&6/5-K12M,6-N12R was 473 nM; with HCF152/8&9, 5.3 nM; in the data set with HCF152/10&11, 5240 nM; with HCF152/5&6 [1], 21.1 nM.

On to AUCGAAAAAAAAAAAAAAAAAAAAAAAAA (ssRNA) [LA25], for which the binding result in the data set with HCF152/9&10 is “binds”; with HCF152/5&6 [2], “binds”; in the data set with HCF152/2&3, “binds”; in the data set with CAR4/6 (I1L) it was “no binding”; with HCF152/7&8, “binds”; in [3], “binds”.
